According to US20230398182A1 (ACCELERON PHARMA, published 2023):

Biological target: T1, hTβRII (G4S)2-hFc (human)
T1 construct: 70 lacks the C-terminal lysine; Expressed in CHO cells
Experiment: SPR (Biacore), in vitro

T1 sequence (chain, as listed by the source limits assumed): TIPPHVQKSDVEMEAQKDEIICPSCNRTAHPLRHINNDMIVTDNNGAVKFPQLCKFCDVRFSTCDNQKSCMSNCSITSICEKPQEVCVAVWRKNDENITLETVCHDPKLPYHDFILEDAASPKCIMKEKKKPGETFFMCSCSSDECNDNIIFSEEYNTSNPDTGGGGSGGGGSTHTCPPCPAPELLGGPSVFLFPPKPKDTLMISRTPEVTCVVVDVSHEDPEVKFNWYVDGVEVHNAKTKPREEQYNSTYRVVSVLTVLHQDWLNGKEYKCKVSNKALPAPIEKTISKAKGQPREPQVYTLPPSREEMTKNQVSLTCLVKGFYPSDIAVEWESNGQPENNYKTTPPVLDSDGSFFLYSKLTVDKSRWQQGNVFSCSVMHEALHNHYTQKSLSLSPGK

binding result: binds
B1: Human TGFβ2 (ligand, UniProt P61812 303-414, looked up)
chain: ALDAAYCFRNVQDNCCLRPLYIDFKRDLGWKWIHEPKGYNANFCAGACPYLWSSDTQHSRVLSLYNTINPEASASPCCVSQDLEPLTILYYIGKTPKIEQLSNMIVKSCKCS
